Assay results reported in patent publication US20160289285A1 (Molecular Partners, published 2016).
Numbering of substitutions follows the chain as printed. Values joined by “and” are separate entries in the source; they are usually repeats but may differ in a detail not shown here. Identical values can stand only once. Like-named read-outs stand apart in the source and are kept apart here.

T1: mouse VEGF-A (mouse, UniProt Q00731-2 27-190, limits assumed)
T1 sequence (looked up): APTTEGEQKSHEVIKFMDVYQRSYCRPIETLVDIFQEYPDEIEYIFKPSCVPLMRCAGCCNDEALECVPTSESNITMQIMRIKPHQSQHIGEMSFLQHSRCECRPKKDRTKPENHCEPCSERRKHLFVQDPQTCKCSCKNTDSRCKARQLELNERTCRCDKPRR

T2: rat VEGF-A (rat, UniProt P16612-2 27-190, limits assumed)
T2 sequence (looked up): T1 sequence (looked up) with S10A, I14V, I75V

T3: Human VEGF-C (human, UniProt P49767 103-227, limits assumed)
T3 sequence (looked up): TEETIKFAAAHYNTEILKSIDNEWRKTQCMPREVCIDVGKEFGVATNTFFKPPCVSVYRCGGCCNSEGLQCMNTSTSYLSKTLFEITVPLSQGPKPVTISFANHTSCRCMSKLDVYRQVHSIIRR

B1: human VEGF-A (ligand, UniProt P15692-4 27-191, looked up)
chain: APMAEGGGQNHHEVVKFMDVYQRSYCHPIETLVDIFQEYPDEIEYIFKPSCVPLMRCGGCCNDEGLECVPTEESNITMQIMRIKPHQGQHIGEMSFLQHNKCECRPKKDRARQENPCGPCSERRKHLFVQDPQTCKCSCKNTDSRCKARQLELNERTCRCDKPRR
notes: Recombinant, bought or produced in CHO or Pichia pastoris; also called hVEGF-A
B2: Protein #134 (designed binder)
chain: GSDLGKKLLEAARAGQDDEVRELLKAGADVNAKDYFSHTPLHLAARNGHLKIVEVLLKAGADVNAKDFAGKTPLHLAANEGHLEIVEVLLKAGADVNAQDIFGKTPADIAADAGHEDIAEVLQKAAGSPTPTPTTPTPTPTTPTPTPTGSDLGKKLLEAARAGQDDEVRILLKAGADVNAKDRYGDTPLHLAADIGHLEIVEVLLKAGADVNAEDYFGNTPLHLAASYGHLEIVEVLLKAGADVNAKDDYGNTPLHLAANTGHLEIVEVLLKAGADVNAQDKSGKTPADLAADAGHEDIAEVLQKAAGSPTPTPTTPTPTPTTPTPTPTGSDLDKKLLEAARAGQDDEVRILLKAGADVNAKDSTGWTPLHLAAPWGHPEIVEVLLKAGADVNAKDFQGWTPLHLAAAAGHLEIVEVLLKAGADVNAQDKSGKTPADLAADAGHEDIAEVLQKAAGSPTPTPTTPTPTPTTPTPTPTGSDLGKKLLEAARAGQDDEVRELLKAGADVNAKDYFSHTPLHLAARNGHLKIVEVLLKAGADVNAKDFAGKTPLHLAANEGHLEIVEVLLKAGADVNAQDIFGKTPADIAADAGHEDIAEVLQKAA
notes: Four designed ankyrin repeat domains (serum albumin, HGF, VEGF-A, serum albumin); one molecule is used here
B3: Protein #60 (designed binder)
chain: MRGSHHHHHHGSDLGKKLLEAARAGQDDEVRELLKAGADVNAKDYFSHTPLHLAARNGHLKIVEVLLKAGADVNAKDFAGKTPLHLAANEGHLEIVEVLLKAGADVNAQDIFGKTPADIAADAGHEDIAEVLQKAAGSPTPTPTTPTPTPTTPTPTPTGSDLGKKLLEAARAGQDDEVRILLKAGADVNAKDRYGDTPLHLAADIGHLEIVEVLLKAGADVNAEDYFGNTPLHLAASYGHLEIVEVLLKAGADVNAKDDYGNTPLHLAANTGHLEIVEVLLKAGADVNAQDKSGKTPADLAADAGHEDIAEVLQKAA
B4: Protein #61 (designed binder)
chain: MRGSHHHHHHGSDLGKKLLEAARAGQDDEVRELLKAGADVNAKDYFSHTPLHLAARNGHLKIVEVLLKAGADVNAKDFAGKTPLHLAANEGHLEIVEVLLKAGADVNAQDIFGKTPADIAADAGHEDIAEVLQKAAGSPTPTPTTPTPTPTTPTPTPTGSDLDKKLLEAARAGQDDEVRILLKAGADVNAKDSTGWTPLHLAAPWGHPEIVEVLLKAGADVNAKDFQGWTPLHLAAAAGHLEIVEVLLKAGADVNAQDKSGKTPADLAADAGHEDIAEVLQKAA

Experiments:
human HGF [1] = target: T4, human HGF (human, UniProt P14210 32-728); experiment: SPR (ProteOn), human HGF immobilised, injection scheme PBST-hVEGF-A-PBST
T4 construct: also called hepatocyte growth factor
T4 sequence (P14210 32-728 limits assumed): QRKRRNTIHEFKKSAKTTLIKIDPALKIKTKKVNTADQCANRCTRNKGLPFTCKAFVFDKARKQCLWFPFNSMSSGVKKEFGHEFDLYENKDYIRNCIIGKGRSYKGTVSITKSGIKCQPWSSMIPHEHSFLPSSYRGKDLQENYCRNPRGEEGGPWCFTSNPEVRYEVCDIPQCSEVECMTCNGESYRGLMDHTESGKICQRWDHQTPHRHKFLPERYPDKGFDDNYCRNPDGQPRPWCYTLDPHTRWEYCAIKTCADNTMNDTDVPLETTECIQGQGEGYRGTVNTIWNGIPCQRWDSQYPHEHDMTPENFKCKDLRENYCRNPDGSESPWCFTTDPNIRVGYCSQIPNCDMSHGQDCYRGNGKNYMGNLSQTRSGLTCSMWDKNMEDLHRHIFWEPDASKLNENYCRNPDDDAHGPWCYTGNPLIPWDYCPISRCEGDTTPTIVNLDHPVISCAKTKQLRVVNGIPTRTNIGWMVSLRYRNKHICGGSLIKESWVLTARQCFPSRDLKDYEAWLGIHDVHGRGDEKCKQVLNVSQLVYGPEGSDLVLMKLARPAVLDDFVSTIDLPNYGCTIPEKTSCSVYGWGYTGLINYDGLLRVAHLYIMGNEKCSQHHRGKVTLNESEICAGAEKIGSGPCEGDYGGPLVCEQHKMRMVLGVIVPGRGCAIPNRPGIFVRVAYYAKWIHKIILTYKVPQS
Experimental: FIG. 8. SPR analysis of recombinant binding proteins. […] The control injections indicate that no unspecific interaction occurs. RU: resonance units; t: time in seconds.
SPR was measured in a similar way as described in Example 2, with the following setup. 2700 RU human HGF were immobilized on a sensor chip. […] Following this, 100 nM human VEGF-A or PBST were injected for 180 seconds (leading to saturation) followed by a PBST wash of 360 seconds. Finally, 100 nM human serum albumin or PBST were injected for 180 seconds followed by a PBST wash of 600 seconds.

human VEGF-A [2] = target: B1; experiment: cell-based or functional assay
human HGF [3] = target: T4, human HGF; experiment: cell-based or functional assay
human VEGF-A [4] = target: B1; experiment: ELISA, immobilised target
Experimental: (§1) 100 μl or 50 μl of 20 nM target (VEGF-A, HGF, or serum albumin) in PBS per well were immobilized in a Maxisorp plate (Nunc, Denmark) overnight at 4° C. After washing 5 times with 300 μl PBST (PBS supplemented with 0.1% Tween 20), the wells were blocked with 300 μl PBST-C (PBST supplemented with 0.25% casein) for 2 h at room temperature with shaking at 450 rpm on a Titramax 1000 shaker (Heidolph, Germany). […] After washing 5 times as described above, bound anti-designed ankyrin repeat domain antibody was detected using 100 μl or 50 μl/well goat anti-rabbit IgG-HRP conjugate in PBST-C for 1 h at room temperature with shaking at 450 rpm. After washing 5 times as described above, the ELISA was then developed using 100 μl BM soluble blue POD substrate (Roche, Switzerland), diluted 1:4 in water. The reaction was stopped after 5 min using 100 μl 1 M H₂SO₄. The OD (OD 450 nm-OD 620 nm) was then recorded.
(§2) Cynomolgus monkey VEGF-A is identical to human VEGF-A and was thus not tested separately.

mouse serum albumin = mouse serum albumin (mouse, UniProt P07724 25-608); experiment: ELISA, immobilised target
Experimental: as §1, §2

rat serum albumin = rat serum albumin (rat, UniProt P02770 25-608); experiment: ELISA, immobilised target
Sequence of rat serum albumin (P02770 25-608 limits assumed): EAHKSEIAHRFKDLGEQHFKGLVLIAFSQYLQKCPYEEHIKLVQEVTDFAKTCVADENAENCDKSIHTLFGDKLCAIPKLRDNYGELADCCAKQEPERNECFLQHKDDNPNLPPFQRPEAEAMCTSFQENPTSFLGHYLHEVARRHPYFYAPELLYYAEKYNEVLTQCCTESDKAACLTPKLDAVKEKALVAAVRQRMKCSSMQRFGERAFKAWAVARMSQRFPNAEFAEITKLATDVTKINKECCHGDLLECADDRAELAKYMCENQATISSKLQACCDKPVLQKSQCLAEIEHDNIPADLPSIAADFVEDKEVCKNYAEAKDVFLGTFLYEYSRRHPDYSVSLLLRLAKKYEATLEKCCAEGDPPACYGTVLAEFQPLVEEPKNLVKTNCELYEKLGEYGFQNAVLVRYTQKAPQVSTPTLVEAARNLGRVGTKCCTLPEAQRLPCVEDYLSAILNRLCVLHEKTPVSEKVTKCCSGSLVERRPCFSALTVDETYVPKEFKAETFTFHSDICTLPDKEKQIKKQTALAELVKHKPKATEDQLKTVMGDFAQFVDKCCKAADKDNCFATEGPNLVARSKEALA
Experimental: as §1, §2

dog serum albumin = dog serum albumin (dog, UniProt P49822 25-608); experiment: ELISA, immobilised target
Sequence of dog serum albumin (P49822 25-608 limits assumed): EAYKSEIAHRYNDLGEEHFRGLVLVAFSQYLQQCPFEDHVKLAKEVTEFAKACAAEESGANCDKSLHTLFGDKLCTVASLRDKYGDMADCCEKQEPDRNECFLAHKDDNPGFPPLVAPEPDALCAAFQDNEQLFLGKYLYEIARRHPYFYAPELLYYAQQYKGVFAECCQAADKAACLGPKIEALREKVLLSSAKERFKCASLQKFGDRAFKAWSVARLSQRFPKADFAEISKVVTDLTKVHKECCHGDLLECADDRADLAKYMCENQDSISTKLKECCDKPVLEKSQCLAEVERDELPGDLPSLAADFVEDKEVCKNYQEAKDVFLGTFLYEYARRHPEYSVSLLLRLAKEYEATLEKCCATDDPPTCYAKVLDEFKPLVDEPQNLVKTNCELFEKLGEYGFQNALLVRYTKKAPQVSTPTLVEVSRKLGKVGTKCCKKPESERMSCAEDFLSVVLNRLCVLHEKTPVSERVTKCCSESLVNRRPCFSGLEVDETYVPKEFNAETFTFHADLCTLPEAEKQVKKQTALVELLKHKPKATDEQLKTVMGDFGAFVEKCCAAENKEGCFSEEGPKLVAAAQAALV
Experimental: as §1, §2

mouse VEGF-A = target: T1, mouse VEGF-A; experiment: ELISA, immobilised target
Experimental: as §1, §2

rat VEGF-A = target: T2, rat VEGF-A; experiment: ELISA, immobilised target
Experimental: as §1, §2

human HGF [5] = target: T4, human HGF; experiment: ELISA, immobilised target
Experimental: as §1, §2

cynomolgus monkey HGF = cynomolgus monkey HGF (cynomolgus monkey, UniProt C9E9X5 32-728); experiment: ELISA, immobilised target
Experimental: as §1, §2

mouse HGF = mouse HGF (mouse, UniProt Q08048 33-728); experiment: ELISA, immobilised target
Sequence of mouse HGF (Q08048 33-728 limits assumed): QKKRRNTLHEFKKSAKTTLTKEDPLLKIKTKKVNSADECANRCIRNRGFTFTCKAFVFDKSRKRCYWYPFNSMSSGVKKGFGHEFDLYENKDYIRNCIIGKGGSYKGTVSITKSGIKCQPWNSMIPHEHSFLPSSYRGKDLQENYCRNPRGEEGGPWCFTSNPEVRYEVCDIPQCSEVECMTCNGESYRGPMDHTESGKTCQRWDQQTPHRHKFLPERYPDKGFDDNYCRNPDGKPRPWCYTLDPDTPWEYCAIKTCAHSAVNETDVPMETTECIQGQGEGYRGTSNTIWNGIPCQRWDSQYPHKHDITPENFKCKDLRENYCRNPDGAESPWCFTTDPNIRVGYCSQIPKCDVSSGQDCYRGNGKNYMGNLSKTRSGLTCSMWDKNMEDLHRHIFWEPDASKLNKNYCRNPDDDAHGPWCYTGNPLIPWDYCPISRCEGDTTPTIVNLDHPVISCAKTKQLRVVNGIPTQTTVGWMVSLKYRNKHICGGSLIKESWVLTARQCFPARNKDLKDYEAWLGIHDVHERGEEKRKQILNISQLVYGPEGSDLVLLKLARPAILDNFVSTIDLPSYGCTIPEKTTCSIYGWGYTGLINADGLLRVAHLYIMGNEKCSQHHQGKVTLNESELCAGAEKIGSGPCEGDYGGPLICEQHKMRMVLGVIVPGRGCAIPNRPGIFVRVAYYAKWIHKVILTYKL
Experimental: as §1, §2

human serum albumin [6] = target: T5, human serum albumin (human, UniProt P02768 25-609); experiment: ELISA, immobilised target
T5 construct: For SEC-MALS purified from CSL Behring 20% solution; also called HSA; SA (human)
T5 sequence (P02768 25-609 limits assumed): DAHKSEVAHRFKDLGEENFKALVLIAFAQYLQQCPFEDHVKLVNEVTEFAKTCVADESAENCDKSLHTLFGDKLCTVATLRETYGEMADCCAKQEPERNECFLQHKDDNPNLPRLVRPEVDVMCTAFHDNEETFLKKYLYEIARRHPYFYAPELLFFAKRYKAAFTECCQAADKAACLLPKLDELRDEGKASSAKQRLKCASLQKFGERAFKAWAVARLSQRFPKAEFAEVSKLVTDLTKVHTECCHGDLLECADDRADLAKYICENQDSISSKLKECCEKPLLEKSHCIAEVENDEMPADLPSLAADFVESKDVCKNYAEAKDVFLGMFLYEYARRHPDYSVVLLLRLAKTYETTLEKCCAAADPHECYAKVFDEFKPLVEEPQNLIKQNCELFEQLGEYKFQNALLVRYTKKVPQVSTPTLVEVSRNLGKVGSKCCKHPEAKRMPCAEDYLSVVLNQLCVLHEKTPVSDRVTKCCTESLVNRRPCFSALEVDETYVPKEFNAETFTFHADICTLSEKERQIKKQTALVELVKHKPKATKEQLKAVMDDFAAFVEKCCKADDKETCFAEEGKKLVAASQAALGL
Experimental: as §1, §2

[7] = target: cynomolgus monkey serum albumin (cynomolgus monkey, UniProt A2V9Z4 25-608); experiment: ELISA, immobilised target
Sequence of cynomolgus monkey serum albumin (A2V9Z4 25-608 limits assumed): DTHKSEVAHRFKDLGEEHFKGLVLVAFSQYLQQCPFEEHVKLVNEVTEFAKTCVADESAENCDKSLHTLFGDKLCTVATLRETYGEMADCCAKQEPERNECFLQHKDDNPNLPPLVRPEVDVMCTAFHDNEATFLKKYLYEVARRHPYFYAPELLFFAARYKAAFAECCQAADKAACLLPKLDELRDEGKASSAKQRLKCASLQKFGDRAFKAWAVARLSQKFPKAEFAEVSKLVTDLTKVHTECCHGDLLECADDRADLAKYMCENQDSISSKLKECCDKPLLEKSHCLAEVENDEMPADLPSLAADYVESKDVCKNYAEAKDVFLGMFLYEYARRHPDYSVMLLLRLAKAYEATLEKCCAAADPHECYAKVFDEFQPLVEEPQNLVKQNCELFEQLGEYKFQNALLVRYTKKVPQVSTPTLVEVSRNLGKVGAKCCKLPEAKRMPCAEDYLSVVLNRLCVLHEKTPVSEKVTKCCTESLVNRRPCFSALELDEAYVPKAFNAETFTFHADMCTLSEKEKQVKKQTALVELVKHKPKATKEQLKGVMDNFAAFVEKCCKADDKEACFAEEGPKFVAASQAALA
Experimental: as §1, §2

human VEGF-A [8] = target: B1; experiment: ELISA, immobilised target; remark: listed apart in the source
Human VEGF-C = target: T3, Human VEGF-C; experiment: ELISA, immobilised target
Human PDGF-AB = target: T6, Human PDGF-AB (human, UniProt P04085 87-211; P01127 82-190, limits assumed); experiment: ELISA, immobilised target
T6 construct: Heterodimer by its name
T6 sequence (P01127 82-190 limits assumed, chain 2 of 2, other chains not shown): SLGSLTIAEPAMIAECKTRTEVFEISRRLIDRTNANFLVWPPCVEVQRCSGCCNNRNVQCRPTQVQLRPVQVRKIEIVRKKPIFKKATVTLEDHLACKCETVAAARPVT

human HGF [9] = target: T4, human HGF; experiment: HGF/cMet competition ELISA as in Example 3
Experimental: (§3) After washing away any unbound substances, an enzyme-linked polyclonal antibody specific for VEGF-A is added to the wells. Following a wash to remove any unbound antibody-enzyme reagent, a substrate solution is added to the wells and color develops in proportion to the amount of VEGF-A bound in the initial step. The color development is stopped and the intensity of the color is measured. […] IC₅₀ values were calculated from such titration curves obtained as described above using Graph Pad Prism software and standard procedures known to the person skilled in the art. For designed ankyrin repeat domains with binding specificity to HGF, a cMet receptor competition assay was performed. For that purpose, 5 nM of human cMet receptor in PBS were immobilized on Maxisorp plates overnight at 4° C. After washing with PBS 0.05% TWEEN 20, the plate was blocked for 2 h with shaking at 300 rpm using PBS containing 0.05% TWEEN 20 and 0.25% Casein at RT. A constant concentration of 5 nM human HGF was pre-incubated for 30 min at RT with a 1000 nM-1 pM of Proteins #23, #26, #28, and #29 (1:4 dilution series each) on a dilution plate in PBS 0.05% TWEEN 20. After washing of the ELISA plate with PBS 0.05% TWEEN, pre-incubated samples were transferred to the ELISA plate and plate was incubated for 2 h at RT with shaking at 300 rpm. […] Readout was done at A450 using A620 as reference wavelength. […]

human VEGF-A [10] = target: B1; experiment: VEGF-A competition binding ELISA (FIG. 7C)
Experimental: as §3

[11] = target: biotinylated VEGF-A165 (Reliatech, #300-076Bi-L) (UniProt P15692-4 27-191, biotinylated); experiment: VEGF-A/VEGFR-2 competition FRET (HTRF); 10 nM VEGF-R2-Fc, 10 nM biotinylated VEGF-A165
Experimental: Such competition FRET and ELISA assays are well known to the person skilled in the art. […] In parallel, 5 μl of Streptavidin-Tb (streptavidin-Lumi4-terbium cryptate donor, Cisbio #610SATLB) and 5 μl of PAb anti-hIgG-de (D2-conjugated goat anti-Human IgG, Cisbio #61 HFCDAA) were added to 500 μl of PBST-BSA buffer and incubated for 20 minutes (2× reagent). Ten μl/well of 2× reagent were dispensed in a 384-well HTRF white-plate (Thermo Fisher Scientific Inc.) and 5 μl/well of four-time concentration hVEGF-R2-Fc fusion (Reliatech #SFC-008) were added. Five μl of the preincubated competition mixture were then added to wells. The complete reaction mix was incubated in the dark for 1 hour at room temperature before the fluorescence read out using a fluorescence reader. […] The read-out was done for A665 nm and […] wavelength (Excitation 340 nm).

human VEGF-A [12] = target: B1; experiment: VEGF-A competition ELISA as in Example 3; competitor: immobilised anti-VEGF-A monoclonal antibody
Experimental: as §3

human serum albumin [13] = target: T5, human serum albumin; experiment: ELISA, immobilised human serum albumin
Experimental: as §1, §2

Question: Does B1 bind (human HGF [1])?
Answer: no binding (tested: 100 nM)

Question: How did the “Inhibition of VEGF-A-induced HUVEC proliferation, IC50” value (human VEGF-A [2]) turn out when B2 was run?
Answer: 5.7 ng/ml and 91.3 pM

Question: What about the “inhibition of proliferation of HUVECs, IC50” value (human VEGF-A [2]) of the same binder?
Answer: 0.1 to 0.15 nM

Question: What about the “Inhibition of cMet phosphorylation in A549 cells, IC50” value (human HGF [3]) of the same binder?
Answer: 0.184 nM

Question: And the “inhibition of cMet phosphorylation in A549 cells, IC50” value (human HGF [3])?
Answer: < 1 nM

Question: What about the EC50 (human VEGF-A [4]) of the same binder?
Answer: 0.024 nM

Question: And the EC50 (mouse serum albumin)?
Answer: 0.015 nM

Question: What about the EC50 (rat serum albumin) of the same binder?
Answer: 0.017 nM

Question: And the EC50 (dog serum albumin)?
Answer: 0.023 nM

Question: What about the EC50 (mouse VEGF-A) of the same binder?
Answer: 0.021 nM

Question: What about the EC50 (rat VEGF-A) of the same binder?
Answer: 0.022 nM

Question: And the EC50 (human HGF [5])?
Answer: 0.024 nM

Question: And the EC50 (cynomolgus monkey HGF)?
Answer: 0.04 nM

Question: And the EC50 (mouse HGF)?
Answer: 0.045 nM

Question: And the EC50 (human serum albumin [6])?
Answer: 0.013 nM

Question: What about the EC50 [7] of the same binder?
Answer: 0.017 nM

Question: What about the EC50 (human VEGF-A [8]) of the same binder?
Answer: 0.024 nM

Question: Does B2 bind (Human VEGF-C)?
Answer: no binding (tested: 100 nM to 0.01 pM)

Question: Does B2 bind (Human PDGF-AB)?
Answer: no binding (tested: 100 nM to 0.01 pM)

Question: And the IC50 (human HGF [9])?
Answer: 0.92 nM

Question: What about the IC50 (human VEGF-A [10]) of the same binder?
Answer: < 0.01 nM

Question: What about the IC50 [11] of the same binder?
Answer: 0.6 nM

Question: And the IC50 (human VEGF-A [12])?
Answer: 0.0045 nM

Question: With B3 as the binder, how does the EC50 (human serum albumin [13]) read?
Answer: 0.225 nM

Question: How did the EC50 (human serum albumin [13]) turn out when B4 was run?
Answer: 0.322 nM
